According to patent publication US5863775A, “Control of parasites” (The University of Leeds, priority 1994, dated 1999):
Where a SMILES comes first, the peptide text is derived from it. [ ]: non-standard residue; d: D form. The star is where a group is joined. Sta = CC(C)C[C@H](N)[C@@H](O)CC(=O)O; Isovaleryl = CC(C)CC(=O)*

Columns and labels:
[1] = test system: Ascaridia galli cysteine protease; test: Inhibition of cysteine protease fraction from Ascaridia galli; type: biochemical
[2] = test system: Ascaripain from Ascaris suum; test: Sensitivity of Ascaripain to protease inhibitors; type: biochemical
Excerpt: Ascaripain from Ascaris suum is similar to Ascaridia cysteine protease. Both prefer hydrolysis of Z-Phe-Arg-aminomethylcoumarin and both have limited action on Z-Phe-Arg-Arg-aminomethylcoumarin and Bz-Arg-aminomethylcoumarin. […] Pepstatin and serine protease inhibitors have no effect.

Ascaridia galli = Ascaridia galli worms held in vitro for 4 days with maize inhibitor
Protocol: 35 day old Ascaridia were removed from the host and thoroughly rinsed with 0.9% (w/v) NaCl in distilled water before transfer to 3 cm plastic Petri-dishes containing basic culture medium: CaCl2 2H2 O (0.24 mg/ml), Na2 HCO, (0.2 mg/ml), NaCl (9.0 mg/ml) and D-glucose. (1 mg/ml). Streptomycin sulphate (100 mg) and penicillin (60 u) were included to reduce microbial contamination.
Three treatments of five replicates containing 4 worms each were used to assess the potency, of the maize inhibitor. Each treatment was carried out in the basal culture medium supplemented with:
(i) 0.5 mg/ml bovine serum albumin (BSA);
(ii) 0.5 mg/ml maize protein recovered by the batch method of which zeacystatin was estimated to be at 22 μg/ml;
(iii) no supplement to the medium.
The worms were kept for 4 days in the dark at 37° C. and solutions changed daily. Zeacystatin concentration was estimated using a papain inhibition assay as previously and by comparison of the inhibition derived from the batch method with that achieved for the zeacystatin obtained by affinity chromatography earlier.

Caenorhabditis elegans = test: C. elegans feeding trials on cystatin-supplemented medium; type: in vivo; conditions: for larvae that achieved normal development to adulthood: hatched and left to develop on supplemented media; for larvae that completed development: hatched on supplemented media, then transferred to normal media; for mean eggs laid per hermaphrodite: hermaphrodites on supplemented plates, 2.5 mg 1^-1, ten replicates
Protocol: Caenorhabditis elegans was cultured on NGM agar carrying a lawn of OP50 E. coli as described by Wood (1988). Populations were maintained for 5 days after which time an agar plug from the colony plate was inserted onto fresh media. When required, the Oc-I (see Example 6) or BSA was added to the cooled medium to a final concentration of 2.5 mg 1^-1 just before polymerisation. Single nematodes were transferred from non-supplemented solid agar plates to plates containing Oc-I or BSA.
Feeding trials were set-up using C. elegans to examine the effect of Oc-I on nematode survival and growth. As soon as hermaphrodites became apparent on normal agar they were transferred to individual plates containing either Oc-I or BSA and egg laying was observed. Ten replicates were carried out for each condition.
Subsequently the larvae hatched under normal conditions were removed to media supplemented with either Oc-I or BSA. 50 larvae were removed at 6 h, 12 h, 24 h and 30 h (corresponding to the four larval stages L1, L2, L3 and L4 respectively).
Larvae of C. elegans were transferred to agar plates with E. coli in which the medium was supplemented with 0-10 mg/L of Oc-I and the subsequent mortality of the animals during feeding was estimated from activity of the animals.

[3] = test system: RH strain Toxoplasma gondii in MDBK cells; test: Toxoplasma gondii growth in MDBK cell culture; type: cell-based; conditions: 24 hours
Protocol: Tachyzoites of T. gondii were produced by intraperitoneal passage in Tuck's Number 1 outbred mice, approximately 10^7 parasites are injected intra-peritoneally and parasites for culture were harvested three days later by peritoneal lavage with F12 medium and used immediately.
MDBK cells were plated onto 13 mm cover-slip cultures at a density of 1×10^5 per cover slip and incubated overnight in HAM's F12 medium (GIBCO) plus 10% foetal calf serum at 37° C. Tachyzoites of RH strain Toxoplasma gondii (2×10^6) were loaded onto each cover slip and incubated for 4 hours at 37° C. to allow invasion of the DBK cells. Cultures were then washed with F12 medium to remove extracellular parasites and the inhibitor was added at a concentration of 0, 30 or 120 μg/ml. The cultures were incubated for a further 24 hours at 37° C. and then removed, washed with PBS, fixed with Bouin's solution and stained with Geimsa. Parasite growth was assessed by scoring approximately 200 cells for the number of infected cells and the total number of parasites in the sample.

[4] = 30 h on normal media (L4) before transfer to supplemented media

For CC(C)CC(=O)N[C@H](C(=O)N[C@H](C(=O)N[C@@H](CC(C)C)[C@@H](O)CC(=O)N[C@@H](C)C(=O)N[C@@H](CC(C)C)[C@@H](O)CC(=O)O)C(C)C)C(C)C [Pepstatin] (Isovaleryl-VV[Sta]A[Sta]-OH), the “sensitivity of Ascaridia cysteine protease to inhibitor” value [1] was “no effect” and the “sensitivity of Ascaripain from Ascaris suum to inhibitor” value [2] was “no effect”.

For CC(C)C[C@H](NC(=O)[C@H]1O[C@@H]1C(=O)O)C(=O)NCCCCN=C(N)N [E64], the “sensitivity of Ascaridia cysteine protease to inhibitor” value [1] was “highly sensitive”, the “inhibition of proteolytic activity of protease from Ascaridia galli” value ([1]; 10 μM E64, pre-incubated 20 min at 37° C., Z-Phe-Arg-β-napthylamine, FIG. 6) was “over 90%” and the “sensitivity of Ascaripain from Ascaris suum to inhibitor” value [2] was “highly sensitive”.

For “bovine serum albumin [BSA, reference compound]”, the “Activity Score of A. galli” value (Ascaridia galli; 0.5 mg/ml supplement in basic medium (maize protein: zeacystatin estimated 22 μg/ml), 4 days, dark, 37° C., scale 0 (dead) to 3 (frequently active)) was 2.75 ± 0.35, the “state of worms in culture” value (Ascaridia galli; 0.5 mg/ml supplement, 4 days at 37° C.) was “remained active for 4 days” and the “larvae that achieved normal development to adulthood” value (Caenorhabditis elegans) was 95%. For the same molecule, the “juveniles developing into adult nematodes” value (Caenorhabditis elegans; hatched from eggs laid on supplemented media, transferred to normal media) was “All”, the “larvae that completed development” value (Caenorhabditis elegans) was 96.0% and the “mean eggs laid per hermaphrodite” value (Caenorhabditis elegans) was 300.

B1: egg white cystatin: protease inhibitor of cysteine proteases (a cystatin) in chick egg white (protein, UniProt P01038 24-139, looked up)
Cystatin: SEDRSRLLGAPVPVDENDEGLQRALQFAMAEYNRASNDKYSSRVVRVISAKRQLVSGIKYILQVEIGRTTCPKSSGDLQSCEFHDEPEMAKYTTCTFVVYSIPWLNQIKLLESKCQ
B1 was tested, and the “sensitivity of Ascaridia cysteine protease to inhibitor” value [1] was “highly sensitive” and the “sensitivity of Ascaripain from Ascaris suum to inhibitor” value [2] was “highly sensitive”.

B2: Oc-I: oryzacystatin I, rice cystatin cloned from Oryza sativa L. japonica, expressed in E. coli with six N-terminal histidine residues (protein, UniProt P09229 27-140, looked up)
Cysteine proteinase inhibitor …: EAHRAGGEGEEKMSSDGGPVLGGVEPVGNENDLHLVDLARFAVTEHNKKANSLLEFEKLVSVKQQVVAGTLYYFTIEVKEGDAKKLYEAKVWEKPWMDFKELQEFKPVDASANA
modifications: N-terminal His6 tag
notes: oryzacystatin I, rice cystatin cloned from Oryza sativa L. japonica, expressed in E. coli with six N-terminal histidine residues
B2 was tested, and the number parasites/cell ([3]; 30 μg/ml) was 6.3 ± 0.63, the “% cells infected” value ([3]; 30 μg/ml, listed as Inhibitor) was 66 ± 2% and the “% cells infected” value ([3]; 30 μg/ml, listed as inhibitor) was 66±2%. For the same molecule, the number parasites/cell ([3]; 120 μg/ml, P<0.05, listed as Inhibitor) was 4.2 ± 0.17, the number parasites/cell ([3]; 120 μg/ml, P<0.05, listed as inhibitor) was 4.2±0.17 and the “% cells infected” value ([3]; 120 μg/ml, listed as Inhibitor) was 59 ± 0.6%. For the same molecule, the “% cells infected” value ([3]; 120 μg/ml, listed as inhibitor) was 59±0.6%, the “larvae that did not reach the adult stages” value (Caenorhabditis elegans; [4]) was 24% and the “larvae that reached adult male or hermaphrodite stages” value (Caenorhabditis elegans; [4]) was 76%. For the same molecule, the eggs hatched (Caenorhabditis elegans; cystatin present in the medium) was “Greater than 95%”, the “larvae that achieved normal development to adulthood” value (Caenorhabditis elegans) was “less than 2%” and the “larvae that completed development” value (Caenorhabditis elegans) was 97.0%. For the same molecule, the “mean eggs laid per hermaphrodite” value (Caenorhabditis elegans) was 300, the “recovery of larvae after transfer to fresh unsupplemented media” value (Caenorhabditis elegans; larvae which failed to develop on Oc-I plates) was “failed to respond to the fresh food source and showed no signs of further development” and the “LD50 for mortality of C. elegans larvae” value (Caenorhabditis elegans; medium supplemented with 0-10 mg/L, probit analysis, FIG. 10) was “approximately 7 mg OcI per liter of medium”. The “larvae developing further to the mature adult stages” value (Caenorhabditis elegans; transferred 6, 12 or 24 h after hatching (L1, L2, L3) to supplemented media) was “none”.
